Measured values from publication PMC11764276.

Biological target: 2196 HC + alphamod1 LC (human)
Assay: SPR; Biacore 8k; antibody captured on a Series S Protein A chip to ~200 RU or greater; 4X serially diluted RBD starting at 1,000 nM flowed at 50 uL/min, 120 s contact, 600 s dissociation; HBS-EP+ buffer; 1:1 Langmuir fitting, steady state analysis, or two-state reaction fitting

Chain of 2196 HC + alphamod1 LC (human) (heavy, as listed by the source, chain 1 of 2): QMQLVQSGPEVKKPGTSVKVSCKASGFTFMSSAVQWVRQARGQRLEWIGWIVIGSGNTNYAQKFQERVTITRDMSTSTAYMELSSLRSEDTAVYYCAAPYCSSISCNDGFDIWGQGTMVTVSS
Chain of 2196 HC + alphamod1 LC (human) (light, as listed by the source, chain 2 of 2): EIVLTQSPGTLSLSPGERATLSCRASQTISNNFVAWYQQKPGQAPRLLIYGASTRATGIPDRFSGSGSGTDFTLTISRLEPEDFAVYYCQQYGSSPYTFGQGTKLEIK

Q: For “RBD (residues 334–527 of the SARS-CoV-2 spike glycoprotein) (from UniProt P0DTC2 334-527) (domain or fragment)”, which Kd is on record?
A: The Kd was 99.4 nM.
